Paper PMC8154130 (ACS Omega, 2021)

Biological target: the molecule itself
Assay: native gel or EMSA

B1: C-terminal truncated DDX3X (domain or fragment, human, UniProt O00571 1-582, looked up)
chain: MSHVAVENALGLDQQFAGLDLNSSDNQSGGSTASKGRYIPPHLRNREATKGFYDKDSSGWSSSKDKDAYSSFGSRSDSRGKSSFFSDRGSGSRGRFDDRGRSDYDGIGSRGDRSGFGKFERGGNSRWCDKSDEDDWSKPLPPSERLEQELFSGGNTGINFEKYDDIPVEATGNNCPPHIESFSDVEMGEIIMGNIELTRYTRPTPVQKHAIPIIKEKRDLMACAQTGSGKTAAFLLPILSQIYSDGPGEALRAMKENGRYGRRKQYPISLVLAPTRELAVQIYEEARKFSYRSRVRPCVVYGGADIGQQIRDLERGCHLLVATPGRLVDMMERGKIGLDFCKYLVLDEADRMLDMGFEPQIRRIVEQDTMPPKGVRHTMMFSATFPKEIQMLARDFLDEYIFLAVGRVGSTSENITQKVVWVEESDKRSFLLDLLNATGKDSLTLVFVETKKGADSLEDFLYHEGYACTSIHGDRSQRDREEALHQFRSGKSPILVATAVAARGLDISNVKHVINFDLPSDIEEYVHRIGRTGRVGNLGLATSFFNERNINITKDLLDLLVEAKQEVPSWLENMAYEHHYKG
**Q.** Does B1 bind?
**A.** binds
